In PMC7092707 (Biotechniques, 2019):

Target: adenosine A2A receptor (human (endogenous in postmortem ventral …, UniProt P29274 1-412))
Experiment: proximity ligation

adenosine A2A receptor (human, sequence (P29274 whole entry): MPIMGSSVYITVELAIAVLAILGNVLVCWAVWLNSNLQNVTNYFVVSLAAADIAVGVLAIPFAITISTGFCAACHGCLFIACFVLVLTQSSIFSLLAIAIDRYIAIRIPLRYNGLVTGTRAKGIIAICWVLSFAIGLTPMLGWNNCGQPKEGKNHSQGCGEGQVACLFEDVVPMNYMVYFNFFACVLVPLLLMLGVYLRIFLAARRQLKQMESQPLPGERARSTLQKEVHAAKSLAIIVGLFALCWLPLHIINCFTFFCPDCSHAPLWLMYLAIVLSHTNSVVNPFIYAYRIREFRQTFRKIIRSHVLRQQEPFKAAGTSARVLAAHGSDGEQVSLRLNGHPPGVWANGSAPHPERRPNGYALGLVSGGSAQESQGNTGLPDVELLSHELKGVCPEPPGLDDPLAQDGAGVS

- fraction of D2R-A2AR complex relative to total A2AR (PLA puncta): 12.3 ± 1.8%
- fraction of D2R-A2AR complex relative to total D2R (PLA puncta): 13.4 ± 5.3%
B1: dopamine receptor type 2 (receptor, UniProt P14416 1-443, looked up)
chain: MDPLNLSWYDDDLERQNWSRPFNGSDGKADRPHYNYYATLLTLLIAVIVFGNVLVCMAVSREKALQTTTNYLIVSLAVADLLVATLVMPWVVYLEVVGEWKFSRIHCDIFVTLDVMMCTASILNLCAISIDRYTAVAMPMLYNTRYSSKRRVTVMISIVWVLSFTISCPLLFGLNNADQNECIIANPAFVVYSSIVSFYVPFIVTLLVYIKIYIVLRRRRKRVNTKRSSRAFRAHLRAPLKGNCTHPEDMKLCTVIMKSNGSFPVNRRRVEAARRAQELEMEMLSSTSPPERTRYSPIPPSHHQLTLPDPSHHGLHSTPDSPAKPEKNGHAKDHPKIAKIFEIQTMPNGKTRTSLKTMSRRKLSQQKEKKATQMLAIVLGVFIICWLPFFITHILNIHCDCNIPPVLYSAFTWLGYVNSAVNPIIYTTFNIEFRKAFLKILHC
